{
  "source": "patent US20230056252A1",
  "about": "(Gilead, published 2023)",
  "binders": {"B1": {"name": "hPGT121.66 AAS + W/huSP34.3.8 scFv AAS + SAV + R (bispecific antibody, human IgG1, lambda, L234A L235A)", "chain": "EVQLVESGGGLVQPGGSLRLSCAASGFTFNTYAMNWVRQAPGKGLEWVGRIRSKYNNYATYYADSVKGRFTISRDDSKNSLYLQMNSLRTEDTAVYYCVRHGNFGHSYVSWFAYWGQGTLVTVSSGGGGSGGGGSGGGGSGGGGSQAVVTQEPSLTVSPGGTVTLTCGSSTGAVTTGHYANWVQQKPGQAPRGLIGGTNKRAPGVPARFSGSLLGGKAALTISGAQPEDEAEYYCALWYSNRWVFGGGTKLTVLEPKSSDKTHTCPPCPAPEAAGGPSVFLFPPKPKDTLMISRTPEVTCVVVDVSHEDPEVKFNWYVDGVEVHNAKTKPREEQYNSTYRVVSVLTVLHQDWLNGKEYKCKVSNKALPASIEKTISKAKGQPREPQVYTLPPSREEMTKNQVSLSCAVKGFYPSDIAVEWESNGQPENNYKTTPPVLDSDGSFFLVSKLTVDKSRWQQGNVFSCSVMHEALHNRYTQKSLSLSPGK", "heavy": "QMQLQESGPGLVKPSETLSLTCSVSGASISDSYWSWIRRSPGKGLEWIGYVHKSGDTNYNPSLKSRVHLSLDTSKNQVSLSLTGVTAADSGKYYCARTLHGRRIYGIVAFNEWFTYFYMDVWGTGTQVTVSSASTKGPSVFPLAPSSKSTSGGTAALGCLVKDYFPEPVTVSWNSGALTSGVHTFPAVLQSSGLYSLSSVVTVPSSSLGTQTYICNVNHKPSNTKVDKKVEPKSCDKTHTCPPCPAPEAAGGPSVFLFPPKPKDTLMISRTPEVTCVVVDVSHEDPEVKFNWYVDGVEVHNAKTKPREEQYNSTYRVVSVLTVLHQDWLNGKEYKCKVSNKALPASIEKTISKAKGQPREPQVYTLPPSREEMTKNQVSLWCLVKGFYPSDIAVEWESNGQPENNYKTTPPVLDSDGSFFLYSKLTVDKSRWQQGNVFSCSVMHEALHNHYTQKSLSLSPGK", "light": "not shown"}, "B2": {"name": "hPGT121.66 AAS + W/huSP34.13.8 scFv AAS + SAV + R (bispecific antibody, human IgG1, lambda, L234A L235A)", "chain": "B1 chain with N30S, D64A, S80T", "heavy": "B1 heavy", "light": "not shown", "notes": "also called 261; bispecific 261"}, "B3": {"name": "hPGT121.66 AAS + W/huSP34.3.13 scFv AAS + SAV + R (bispecific antibody, human IgG1, lambda, L234A L235A)", "chain": "B1 chain with N199S, K200N", "heavy": "B1 heavy", "light": "not shown"}, "B4": {"name": "hPGT121.66 AAS + W/huSP34.34.3 scFv AAS + SAV + R (bispecific antibody, human IgG1, lambda, L234A L235A)", "chain": "not shown", "heavy": "B1 heavy", "light": "not shown"}, "B5": {"name": "hPGT121.66 AAS + W/huSP34.34.12 scFv AAS + SAV + R (bispecific antibody, human IgG1, lambda, L234A L235A)", "chain": "B1 chain with D64A, R89K, V95M, E152P, G204W, V205T, L214S", "heavy": "B1 heavy", "light": "not shown"}, "B6": {"name": "hPGT121.66 AAS + W/huSP34.34.11 scFv AAS + SAV + R (bispecific antibody, human IgG1, lambda, L234A L235A)", "chain": "B1 chain with D64A, R89K, V95M, I222L, R242L", "heavy": "B1 heavy", "light": "not shown"}, "B7": {"name": "hCD4D1.22 Fc AAS + W + YTE/huSP34.39.13 AAS + SAV + R (bispecific antibody, human IgG1, lambda, L234A L235A)", "chain": "not shown", "heavy": "EVQLVESGGGLVQPGGSLRLSCAASGFTFNTYAMNWVRQAPGKGLEWVGRIRSKYNNYATYYADSVKSRFTISRDDSKNSLYLEMNSLRTEDTAVYYCVRHGNFGHSYVSWFAYWGQGTLVTVSSASTKGPSVFPLAPSSKSTSGGTAALGCLVKDYFPEPVTVSWNSGALTSGVHTFPAVLQSSGLYSLSSVVTVPSSSLGTQTYICNVNHKPSNTKVDKKVEPKSCDKTHTCPPCPAPEAAGGPSVFLFPPKPKDTLMISRTPEVTCVVVDVSHEDPEVKFNWYVDGVEVHNAKTKPREEQYNSTYRVVSVLTVLHQDWLNGKEYKCKVSNKALPASIEKTISKAKGQPREPQVYTLPPSREEMTKNQVSLSCAVKGFYPSDIAVEWESNGQPENNYKTTPPVLDSDGSFFLVSKLTVDKSRWQQGNVFSCSVMHEALHNRYTQKSLSLSPGK", "light": "QAVVTQEPSLTVSPGGTVTLTCGSSTGAVTTGHYANWVQQKPGQAPRGLIGGTSNRAPGVPARFSGSLLGGKAALTISGAQPEDEAEYYCALWYSNRWVFGGGTKLTVLGQPKAAPSVTLFPPSSEELQANKATLVCLISDFYPGAVTVAWKADSSPVKAGVETTTPSKQSNNKYAASSYLSLTPEQWKSHRSYSCQVTHEGSTVEKTVAPTECS", "notes": "also called 180; bispecific 180"}, "B8": {"name": "hCD4D1.22 Fc AAS + W + YTE/huSP34.41.13 AAS + SAV + R (bispecific antibody, human IgG1, lambda, L234A L235A)", "chain": "not shown", "heavy": "B7 heavy with R19S, E84Q", "light": "B7 light"}, "B9": {"name": "hCD4D1.22 Fc AAS + W + YTE/huSP34.40.13 AAS + SAV + R (bispecific antibody, human IgG1, lambda, L234A L235A)", "chain": "not shown", "heavy": "B7 heavy with T60A, E84Q", "light": "B7 light", "notes": "also called 188; bispecific 188"}, "B10": {"name": "h3BNC117.52.64 AAS + SAV + YTE/huSP34.3.13 scFv AAS + W + YTE (bispecific antibody, human IgG1, kappa, L234A L235A)", "chain": "B1 chain with N199S, K200N, M291Y, S293T, T295E, S405W, A407L, V446Y, R474H", "heavy": "QVQLLQSGAAVTKPGASVRVSCEASGYNIRDYFIHWWRQAPGQGLQWVGWINPKTGQPNNPRQFQGRVSLTRHASFDFDTFSFYMDLKALRSDDTAVYFCARQRSDYWDFDVWGSGTQVTVSSASTKGPSVFPLAPSSKSTSGGTAALGCLVKDYFPEPVTVSWNSGALTSGVHTFPAVLQSSGLYSLSSVVTVPSSSLGTQTYICNVNHKPSNTKVDKKVEPKSCDKTHTCPPCPAPEAAGGPSVFLFPPKPKDTLYITREPEVTCVVVDVSHEDPEVKFNWYVDGVEVHNAKTKPREEQYNSTYRVVSVLTVLHQDWLNGKEYKCKVSNKALPASIEKTISKAKGQPREPQVYTLPPSREEMTKNQVSLSCAVKGFYPSDIAVEWESNGQPENNYKTTPPVLDSDGSFFLVSKLTVDKSRWQQGNVFSCSVMHEALHNHYTQKSLSLSPGK", "light": "DIQMTQSPSSLSASVGDTATITCQANGYLNWYQQRRGKAPKLLIYDGSKLERGVPSRFSGRRWGQEYNLTINNLQPEDIATYFCQVYEFVVPGTRLDLKRTVAAPSVFIFPPSDEQLKSGTASVVCLLNNFYPREAKVQWKVDNALQSGNSQESVTEQDSKDSTYSLSSTLTLSKADYEKHKVYACEVTHQGLSSPVTKSFNRGEC"}},
  "note": "Residue numbers refer to the chain shown, from its start.",
  "data": [
    {"molecular_target": "T1, biotinylated CD3 epsilon:delta heterodimer protein (Amsbio AMS.CDD-H52WO) (Homo sapiens (Human), UniProt P07766 23-126; P04234 22-105)", "T1 construct": "also called CD3 heterodimer", "assay": "BLI (Octet), CD3 on SA sensor, bispecific analyte", "units": {"Kd": "nM", "koff": "s⁻¹", "kon": "M⁻¹ s⁻¹"}, "values": [
      {"binder": "B1", "Kd": 7.1, "koff": 0.000475, "kon": 66600},
      {"binder": "B2", "Kd": 20.8, "koff": 0.000947, "kon": 48500},
      {"binder": "B3", "Kd": 16.8, "koff": 0.00171, "kon": 106000},
      {"binder": "B4", "Kd": 10.3, "koff": 0.00619, "kon": 620000},
      {"binder": "B5", "Kd": 9.9, "koff": 0.00431, "kon": 433000},
      {"binder": "B6", "Kd": 16, "koff": 0.00172, "kon": 116000}
    ]},
    {"molecular_target": "T2, biotinylated Human CD3E and CD3D (Acro Biosystems Cat CDD-H82W1) (human, UniProt P07766 23-126; P04234 22-105)", "T2 construct": "also called biotinylated CD3", "assay": "SPR (Biacore 4000), CD3 captured on streptavidin chip;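 note: bispecific antibodies or Fabs injected at several concentrations over CD3 surfaces of varying density, sensorgrams fitted with a simple kinetic model to obtain association, dissociation and equilibrium constants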", "units": {"Kd": "nM", "koff": "s⁻¹", "kon": "M⁻¹ s⁻¹"}, "values": [
      {"binder": "B7", "Kd": 2.5, "koff": 0.0049, "kon": "2e+06"},
      {"binder": "B8", "Kd": 2, "koff": 0.0047, "kon": "2.4e+06"},
      {"binder": "B9", "Kd": 1.6, "koff": 0.0036, "kon": "2.2e+06"},
      {"binder": "B1", "Kd": 2.5, "koff": 0.0071, "kon": "2.8e+06"},
      {"binder": "B10", "Kd": 2.7, "koff": 0.0087, "kon": "3.3e+06"},
      {"binder": "B3", "Kd": 2.4, "koff": 0.0084, "kon": "3.6e+06"},
      {"binder": "B4", "Kd": 43, "koff": 0.017, "kon": 390000},
      {"binder": "B5", "Kd": 32, "koff": 0.0119, "kon": 370000},
      {"binder": "B6", "Kd": 3.9, "koff": 0.0129, "kon": "3.3e+06"}
    ]}
  ]
}
